Assay results published in patent US20090075314A1 (DUKE UNIVERSITY, published 2009).
No end group written: not given here.

Legend:
[1] = target: T1, human gastrin/CCK-B receptor (human, UniProt P32239 1-447); test: cell-based or functional assay
T1 construct: Permanently expressed with arrestin-GFP in HEK-293 cells (Clone A); also called gastrin receptor; homo sapiens cholecystokinin B receptor
T1 sequence: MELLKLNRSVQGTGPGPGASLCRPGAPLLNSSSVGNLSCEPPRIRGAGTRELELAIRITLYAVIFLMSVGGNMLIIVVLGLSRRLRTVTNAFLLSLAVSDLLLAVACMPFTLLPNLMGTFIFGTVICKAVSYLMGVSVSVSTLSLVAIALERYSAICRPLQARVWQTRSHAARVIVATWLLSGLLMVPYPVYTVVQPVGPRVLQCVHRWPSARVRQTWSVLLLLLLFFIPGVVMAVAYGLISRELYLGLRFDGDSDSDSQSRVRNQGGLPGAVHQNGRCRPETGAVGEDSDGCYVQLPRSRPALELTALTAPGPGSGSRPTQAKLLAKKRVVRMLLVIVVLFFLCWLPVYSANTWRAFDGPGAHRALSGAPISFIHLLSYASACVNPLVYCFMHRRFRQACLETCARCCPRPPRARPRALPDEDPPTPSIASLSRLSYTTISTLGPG

[2] = target: T1, human gastrin/CCK-B receptor; test: competitive displacement of [3H]CCK-8 from Clone A by hG17
Method: (§1) Membrane Preparation/Binding—All steps were performed at 4° C. Membrane binding was performed in triplicate as described in Shetzline et al., J. Biol. Chem. 273:[…] (1998). Membrane fractions were assayed immediately or stored at −80° C. […] Data were analyzed using Graph Pad-Prism.
(§2) Data are presented as mean±SEM.

[3] = target: T1, human gastrin/CCK-B receptor; test: derived from competitive displacement of [3H]CCK-8 from Clone A by hG17
Method: as §1, §2

Row | Molecule | arrestin-GFP translocation (TI/TF, two hours at 37° C.) [1] | EC50 [2] | Kd [3]
1 | pentagastrin (peptide) | 2.4 nM | – | –
2 | QGPWLEEEEEAYGWMDF-NH2 (peptide, UniProt P01350 76-92, looked up, domain: gastrin-17; also called hGl 7) [synthetic human gastrin-17 peptide (hG17)] | – | 28 nM | 17 nM
